The source of these data is the DeepSol protein solubility set.

The nature of the data set: soluble on expression in E. coli; label from the status in PepcDB or PDB records.
As for “MGSDKIHHHHHHMMRLIRDLAQRPNPPDVGFQFVTDEEIGGRHGTGRLRDEGWHCDFMLCLEPTDLGIMFEHKGGMWAQLRIPGRAAHGSRPWEGDNPVYRLMQGIQAISERYPPPTGPHDWRTSVTPTEIRMGAGSRNQVPAEALVTFDIRWTADTTPETIQADLAAAFPDAEFISVMASAGLRTDPEHQEVGRIADIVERHIGHTPRFYREHFATDARYYSHIGIPAICLGPVGAGLHSAEEWVEIASLTSLYQIILDYIDTM”, the “soluble on expression in E. coli” value is recorded as “not soluble”.
As to “GPGSMKLTFYRLLGCPYCAKVEAVLQYHDVPYEEVHVDPLSGKGLPDRRYQLAPQLYLAPLAKRNSGGAEAAATDSNGVYVVDSAEIVSRLSGPLKYAADIANPRISATRDWITNHFHGASFAITNNSFCDAYATYAYVTPSNYQNFLYHVVGSAALSVLSRYKIQPRLIAKMECADGPAAATPTGAPASTDSNGLWMLSEASRKALAATVRFGAVEEWLRAELQTFLQRRPADKVFHGGSSPDLADVEMYGVTRVVDQHPRLGAVVREGAFGEWQTAMREKLKANTGSVYA”, the “soluble on expression in E. coli” value is “not soluble”.
The value for “MFDFIGNGSAFNTERGNNSAFIKKNSSMILVDCGGTVFHRIKQLNLLQDIKNLYIIITHTHPDHIGSLGDLIFYCYYILKFKPTIIYPNKDIITDFFNIIGVGDEMYELVSDNKVNLTAPEFGDLNIEFIPASHVGVIPAYGFLIGMSDNLVYYSGDGNKLPEKNYKMAGDPLEHHHHHH” was “not soluble”; that for “MRIGHGFDVHAFGGEGPIIIGGVRIPYEKGLLAHSDGDVALHALTDALLGAAALGDIGKLFPDTDPAFKGADSRELLREAWRRIQAKGYTLGNVDVTIIAQAPKMLPHIPQMRVFIAEDLGCHMDEVNVKATTTEKLGFTGRGEGIACEAVALLMKAAK” was “not soluble”; that for “SNAMKILLIGASGTLGSAVKERLEKKAEVITAGRHSGDVTVDITNIDSIKKMYEQVGKVDAIVSATGSATFSPLTELTPEKNAVTISSKLGGQINLVLLGIDSLNDKGSFTLTTGIMMEDPIVQGASAAMANGAVTAFAKSAAIEMPRGIRINTVSPNVLEESWDKLEPFFEGFLPVPAAKVARAFEKSVFGAQTGESYQVY” was “soluble”.
The value for “MSLSQYAEMSLVYDQLTQDQPYEKWFEIVKNHCKDESNILDIGCGTGSLTVQLEALGNVTGMDLSVDMLTVAAQKSANVNWLEGDMTSFDLQQQFDIITIFCDSLNYLQDETAVIETFINVYHHLTDSGVFIFDVHTVYKMMTLFNNQSYIDDKGDIFLAWDAVQGDLPLSVYHDMTFFIRHEDETYSRFDESHFQRTFDEKTYLSWLAQVGFKHVETFTDFNIDEHNEDTERLFFIAKKEGHHHHHH” was “soluble”; that for “MRASEVLQKCLPNSLSGMHALRERALLHAVEALLHGRRLTLMDIARSWPSALRVRAPLKAVDRLLSNRNLQVERSVIDHEMAHWLLRGAQPVIVIDWSDLKPDKSWCLLRAAVPVGGRTLTLLDMVVPGKQQGLEHHHHHH” was “soluble”; that for “MSLVERALQVGSPAPDFALPNAVGREVRLSSVTARGPSVITFYRGAWCPYCSLQLRAYQKILPQLKLLGGELLAISPQTPDKTQATLLKNFLEYEVLSDVGNRVAKRFGLVYPVGAEVRRIYLGFGVDLAEYNGDDSWELPLPGTFVIDRTMTVRLSFVDADYTRRLEPAAILDTLRAMRDVGGIPEGHHHHHH” was “not soluble”.
For “MAEGGAADLDTQRSDIATLLKTSLRKGDTWYLVDSRWFKQWKKYVGFDSWDKYQMGDQNVYPGPIDNSGLLKDGDAQSLKEHLIDELDYILLPTEGWNKLVSWYTLMEGQEPIARKVVEQGMFVKHCKVEVYLTELKLCENGNMNNVVTRRFSKADTIDTIEKEIRKIFSIPDEKETRLWNKYMSNTFEPLNKPDSTIQDAGLYQGQVLVIEQKNEDGTWPRGPSTPNVKNSNYCLPSYTAYKNYDYSEPGRNNEQPGLCGLSNLGNTCFMNSAIQCLSNTPPLTEYFLNDKYQEELNFDNPLGMRGEIAKSYAELIKQMWSGKFSYVTPRAFKTQVGRFAPQFSGYQQQDCQELLAFLLDGLHEDLNRIRKKPYIQLKDADGRPDKVVAEEAWENHLKRNDSIIVDIFHGLFKSTLVCPECAKISVTFDPFCYLTLPLPMKKERTLEVYLVRMDPLTKPMQYKVVVPKIGNILDLCTALSALSGIPADKMIVTDIYNHRFHRIFAMDENLSSIMERDDIYVFEININRTEDTEHVIIPVCLREKFRHSSYTHHTGSSLFGQPFLMAVPRNNTEDKLYNLLLLRMCRYVKISTETEETEGSLHCCKDQNINGNGPNGIHEEGSPSEMETDEPDDESSQDQELPSENENSQSEDSVGGDNDSENGLCTEDTCKGQLTGHKKRLFTFQFNNLGNTDINYIKDDTRHIRFDDRQLRLDERSFLALDWDPDLKKRYFDENAAEDFEKHESVEYKPPKKPFVKLKDCIELFTTKEKLGAEDPWYCPNCKEHQQATKKLDLWSLPPVLVVHLKRFSYSRYMRDKLDTLVDFPINDLDMSEFLINPNAGPCRYNLIAVSNHYGGMGGGHYTAFAKNKDDGKWYYFDDSSVSTASEDQIVSKAAYVLFYQRQDTFSGTGFFPLDRETKGASAATGIPLESDEDSNDNDNDIENENCMHTN” the value was “soluble”.
For the sequence “MSLEAKQTKKSLPLRSEIPVEETWRLEDIFPTDEAWEQEFQEVKKMIPKLAEYQGRLGESADVLYEALQYQDEVSMRLGKLYTYAHMRYDQDTTNAFYQGLNDRATSLYSEASSAMAFIVPEILAIDEVKLRSFLEEKQELKLYEHALDEINRQRPHVLSAEEEALLAQAAEVMQSSSSTFSMLNNADLTFPTIIDENGEEVEVTHGRFIRFLESTDRRVRRDAFKAVYDTYEKYKNTFASTLAGTVKKDNFFARVRRYKSAREAALSSNNIPESVYDNLIETVHEHLPLLHRYVRLRKKVLGLDELHMYDLYTPLVQDVKMEVTYEEAKEYMLKALAPLGEEYISIVKEGLENRWVDVRENKGKRSGAYSSGAYGTHPYILLNWQDNVNNLFTLVHEFGHSVHSYYTRKTQPYPYANYSIFVAEVASTCNEALLNDYLLKTMDEEKKRLYLLNHYLEGFRGTVFRQTMFAEFEHMIHIKAQEGEALTADSLTSLYYELNKKYFGDDIVVDQEIGLEWARIPHFYYNYYVYQYATGFSAATALSKQILEEGEPAVKRYIEFLKAGSSDYPIEVLKKAGVDMTSAEPIRQACQVFAEKLEEMENLLSEGHHHHHH”, the “soluble on expression in E. coli” value was “soluble”.
For “MGAIEDIYEDLETDVPEEEFREAVEEKVEQMGGLADEETAAMLLAHELNENEVNAIADIEPGMDEVKFLAKVMAIGDLKTFERDDEDEDGRVINVEAADESGSLRLAFWDGQAVDIDEGKLEVGDVLRVKGRPKDGYNGLEVSVDKAEPDEDATIDVEPGAGSSIDALTMGQSDVTLRGLVLDTDSIRTFDRDDGSEGRVSNLTLGDETGRIRVTLWDDRADRADELDAGAAVEIIDGYVRERDGSLELHVGDQGAVDEVEDDVAFEPDADPIAEVELEETADIAGVVRSADPKRTFDRDDGSEGQVRNVRIQDATGDIRVALWGDKADKDIAPGDEVLAADVEIQDGWQDDKEASASWNSTIVVLDDGADLATGGAGGGASAETTDAEHAGLSSFGDEGDDTDADSSGNEAAAVSAGTGDTSPDGGAQSAGQQVEFTGTVVQTGDPVVLDDGEQTMSVETGERVQLGQEITVRGELRDDRLHAEDVFLEHHHHHH”, the “soluble on expression in E. coli” value was “not soluble”.
Turning to “GMEPSAKHLQLQTLLSERHAYLMEGNREAMHQLLSSDFSFIDGQGRQFDAETYLDHYVDPDQIQWSNQISESMVVEVFETTALVQEIVEDHFSYGRSMYIGRFRSVSLYHWANEGWKWHFHQLTPLDPS”, the “soluble on expression in E. coli” value is “soluble”.
As to “MEQDNSPQKIQFTVPLLEPHLDPEAAEQIRRRRPTPATLVLTSDQSSPEIDEDRIPNPHLKSTLAMSPRQRKKMTRITPTMKELQMMVEHHLGQQQQGEEPEGAAESTGTQESRPPGIPDTEVESRLGTSGTAKKTAECIPKTHERGSKEPSTKEPSTHIPPLDSKGANSV”, the “soluble on expression in E. coli” value is “soluble”.
“MSTATSKFLSYVLRHAPESIGLVLDSQGWADVADLLAKANASGTPLDEAGLRAVVAESDKKRFTLSEDGRRIRAAQGHSVKVDLGQPPVEPPPQLFHGTATRFLEPILREGLRPGERQQVHLSADRTTALAVGQRHGKPVVLIVDAGQMFADGCRFYLADNGVWLTDAVPFSYLTVSADSSAENDRLEHHHHHH”: the “soluble on expression in E. coli” value is “soluble”.
The value for “SLGSQSSKAPRGDVTAEEAAGASPAKANGQENGHVKSNGDLSPKGEGESPPVNGTDEAAGATGDAIEPAPPSQGAEAKGEVPPKETPKKKKKFSFKKPFKMSGMSFKRNRKEGGGDSSASSPTEEEQEQGEIGACSDEGTAQEGKAAATPESQEPQAKGAEASAASEEEAGPQATEPSTPSGPESGPTPASAEQNE” was “soluble”; that for “MSGIITILGLGAGELDQLTMGVYRKIKEADHLFVRTKEHPVIEELEKEGVQYTSFDAVYEAHDTFEIVYETIANKLLEQAEGTEIIYAVPGHPLVAERTVQLLLEKGEVSNVEVRIEGGQSFLDPMFASLKIDPIEGFQLLDATSFERGQLELRQHLIFCQVYDAFVASDVKLTLMEMLPDDYEVYIVTAAGTSFEQVKKVPLYMLDHETELNNLTSVYMPPVQERASLYQQFDVLREIIAELRGPNGCPWDKKQTHQSLKKYLIEEAYEVLEAIDEEDDDHLVEELGDILLQVMLHAQIGEDEGWFSIDDIIRTLSEKMVRRHPHVFGNTDVNSADEVIANWEEIKKQEKGFVKESVLNGVPKSLPQLLRAYEIQKKAGKVGFDWVDVQPMIEKALEEWQEFQQEVTNMDEEKMLGEFGDLLFAFVNIARHYKIDPEEALRSTNEKFTGRFLYMEAKVAEMNKEMKDLSLEQLDVLWEEAKQTER” was “not soluble”.
With “MADEVIEYKFTCSSFYYGRETSQVLNTSITKGLKCVWKTRYASIAEQAFFSWEFDWNELKRLGIDSLAGNITVKSASMSPLNVQIDLRKPTEIVERAFYLRDDDYAYNSYINKTTFEYSFVPYCAQVDESLYEKMFLPSDENDAILVIGNKKLHVCKAFLSYHSSFFRAIFSSAFKEGQMSEIPIKDVTYKDFALMLSTIYPDAVFPNDRTVEKLLEMGDRFIIQSVINHVEYHLLHNTSIGNEKLMWMADRYGMPKLLVKSIQQMNSIEKAKALKSSPDYAKLSKEAKEKILDRLMALI”, the “soluble on expression in E. coli” value is “not soluble”.
In the case of “PNRSISPSALQDLLRTLKSPSSPQQQQQVLNILKSNPQLMAAFIKQRTAKYVANQPGMQ”, the “soluble on expression in E. coli” value is listed as “soluble”.
Consider “MNRMRWVGEGDIWDLDMSTPVTLEGTARAVPDDPLPLGLSRGTRLSRPKQVEFFHRFMASPLIPSFSPIRPNTGDGGGGGFSLQRVLTLPFSNNWLVSLLGQFDVQRFVTEIDKTKAFGRGSSSTVASRLNTIGKHLKDKSLYALGFCSEFLLSPDDTLLLSYDAYKGDLDKNPRAKAIFNHEFPLHNLTAEAVWPGLFVDKHGEYWDVPLSMAIDLASLPAESGPSYHLCLHHNSGSPKKLHSDTMEVPPPSLLPGLSLKSAVSYRTNMDLWRGTTPKLETCKPYDVFLSSPHVAVSGIIGSVMTAAFGENSIRSKFENDSEGVGGFSLHFPSVNSGFMADALGRASLTAQYGNFQKFFFDLTRFHARLDFPHGLRFLTGATSVAQDLLNSRQPSLEAFQKICPEVLVSLQQQIVGPFSFKVESGIEIDLRNGANPVTVDKTVFAIEYALQVLLSAKAVVSYSPKQNEFMVELRFFET”, for which the “soluble on expression in E. coli” value is “soluble”.
In the case of “MEFVLASASPARRRLLQGIGINPIVHVSHFDESQIHHDDPAQLVEALAAAKAKTVAQHRQDALILGCDSVLHVRGEILGKPASPTEAIARWQTMRGHYGLLYTGHALVDQTQNQLLVRHGVTKVYFAAIDDDTIAAYVRSGEPLQCAGCFALEGKGGLFIEKIEGCHSNVIGLSLPLLREMLAHLGYTVQTLWP”, the “soluble on expression in E. coli” value is on record as “not soluble”.
